Common to all, as to experiment: SPOT array
For experiment [1], the target named is T1, Boi2 SH3 (BOI2_YEAST), P39969.
T1 chain: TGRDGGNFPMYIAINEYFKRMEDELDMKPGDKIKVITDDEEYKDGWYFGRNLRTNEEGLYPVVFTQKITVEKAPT

Experiment [2] concerns the target Sho1 SH3 (SHO1_YEAST), P40073.
In experiment [3] the target is T2, Myo5 SH3 (MYO5_YEAST), Q04439.
T2 chain: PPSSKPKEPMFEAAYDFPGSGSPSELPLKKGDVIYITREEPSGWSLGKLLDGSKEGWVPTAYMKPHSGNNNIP

Experiment [4] deals with T3, Yhr016c SH3 (YSC84_YEAST), P32793.
T3 chain: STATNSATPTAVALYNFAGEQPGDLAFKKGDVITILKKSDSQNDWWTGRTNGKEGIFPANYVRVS

The target of experiment [5] is T4, Rvs167 SH3 (RV167_YEAST), P39743.
T4 chain: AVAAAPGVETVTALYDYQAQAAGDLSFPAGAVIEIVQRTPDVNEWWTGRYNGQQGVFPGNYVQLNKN

Experiment [6] addresses T5, Yfr024 SH3 (LSB3_YEAST), P43603.
T5 chain: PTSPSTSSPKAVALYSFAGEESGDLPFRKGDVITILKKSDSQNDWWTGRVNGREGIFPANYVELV

Experiment [7] has as its target T6, Boi1 SH3 (BOI1_YEAST), P38041.
T6 chain: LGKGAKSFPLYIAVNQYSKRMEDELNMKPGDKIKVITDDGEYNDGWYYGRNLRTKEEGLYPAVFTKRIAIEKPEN

Among the data in publication PMC314469, “Protein Interaction Networks by Proteome Peptide Scanning” (PLoS Biology, 2004) are normalised SPOT signal, Boehringer light units (BLU); mean over the file's lines of this peptide values, retold here.

Sho1 SH3 (SHO1_YEAST), P40073, sequence (P40073 295-366): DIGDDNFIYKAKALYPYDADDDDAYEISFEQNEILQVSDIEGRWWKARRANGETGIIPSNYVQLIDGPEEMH

Regarding INIAKAHPNFPIAL [YKL182W 717-730], the normalised SPOT signal, Boehringer light units (BLU); mean over the file's lines of this peptide in experiment [1] turned out to be 20.4; in experiment [2], 42.9; in experiment [3], 196; in experiment [4], 2.8; in experiment [5], 10.4; in experiment [6], 0. This molecule also showed a normalised SPOT signal, Boehringer light units (BLU); mean over the file's lines of this peptide in experiment [7] of 53.5.
On to INNTRLSPNSPTPP [YER164W 1330-1343], for which the normalised SPOT signal, Boehringer light units (BLU); mean over the file's lines of this peptide in experiment [1] is 6.8; in experiment [2], 42.9; in experiment [3], 140; in experiment [4], 7.1; in experiment [5], 31.5; in experiment [6], 58.4. The same molecule showed a normalised SPOT signal, Boehringer light units (BLU); mean over the file's lines of this peptide in experiment [7] of 58.4.
Turning to IQQNKQGPKIPFYL [YBR028C 374-387], the normalised SPOT signal, Boehringer light units (BLU); mean over the file's lines of this peptide in experiment [1] is 12.3; in experiment [2], 19.8; in experiment [3] it was 86.9; in experiment [4], 5; in experiment [5], 23.5; in experiment [6] it was 19. Further, in experiment [7], the normalised SPOT signal, Boehringer light units (BLU); mean over the file's lines of this peptide was found to be 107.
Turning to INTFKTLPTKPEMQ [YDL202W 181-194], the normalised SPOT signal, Boehringer light units (BLU); mean over the file's lines of this peptide in experiment [1] was 11.5; in experiment [2], 14500; in experiment [3], 167; in experiment [4] it was 14.5; in experiment [5] it was 73.4; in experiment [6] it was 110. In experiment [7], this molecule showed a normalised SPOT signal, Boehringer light units (BLU); mean over the file's lines of this peptide of 37.3.
In the case of ISHNKLSPSEPILS [YER132C 703-716], the normalised SPOT signal, Boehringer light units (BLU); mean over the file's lines of this peptide in experiment [1] was 34; in experiment [2] it was 19.4; in experiment [3], 206; in experiment [4], 22.7; in experiment [5], 48.3; in experiment [6], 0. This molecule returned a normalised SPOT signal, Boehringer light units (BLU); mean over the file's lines of this peptide in experiment [7] of 0.
In the case of ISNRRPVPRRPSQP [YPR091C 658-671], the normalised SPOT signal, Boehringer light units (BLU); mean over the file's lines of this peptide in experiment [1] turned out to be 56.9; in experiment [2], 129; in experiment [3], 377; in experiment [4], 17200; in experiment [5], 82100; in experiment [6], 36800. Also, the normalised SPOT signal, Boehringer light units (BLU); mean over the file's lines of this peptide in experiment [7] stood at 4610.
For the molecule INNNKMRPHLPPLS [YHR102W 535-548], the normalised SPOT signal, Boehringer light units (BLU); mean over the file's lines of this peptide in experiment [1] was determined as 646; in experiment [2] it was 649; in experiment [3] it was 1000; in experiment [4] it was 1230; in experiment [5], 1550; in experiment [6], 4850. Further, in experiment [7], the normalised SPOT signal, Boehringer light units (BLU); mean over the file's lines of this peptide was 1310.
For IPAPKLVPPPPRTR [YNR039C 117-130], the normalised SPOT signal, Boehringer light units (BLU); mean over the file's lines of this peptide in experiment [1] turned out to be 26.7; in experiment [2], 99.1; in experiment [3], 82300; in experiment [4], 167; in experiment [5] it was 294; in experiment [6], 3260. For the same molecule, the normalised SPOT signal, Boehringer light units (BLU); mean over the file's lines of this peptide in experiment [7] stood at 17300.
For the molecule ISADKGFPLIPSGY [YLR290C 162-175], the normalised SPOT signal, Boehringer light units (BLU); mean over the file's lines of this peptide was 16.8 in experiment [1]; 32.9 in experiment [2]; 113 in experiment [3]; 14.4 in experiment [4]; 32.4 in experiment [5]; 38.2 in experiment [6]. The normalised SPOT signal, Boehringer light units (BLU); mean over the file's lines of this peptide in experiment [7] is 30.1.
As for INGEKASPFLPSSL [YNL023C 312-325], the normalised SPOT signal, Boehringer light units (BLU); mean over the file's lines of this peptide in experiment [1] was determined as 23.2; in experiment [2], 19; in experiment [3] it was 184; in experiment [4], 33.2; in experiment [5], 50.3; in experiment [6], 12.1. The normalised SPOT signal, Boehringer light units (BLU); mean over the file's lines of this peptide in experiment [7] was 100.
Turning to IRTYKVVPLGPKAG [YBL088C 2501-2514], the normalised SPOT signal, Boehringer light units (BLU); mean over the file's lines of this peptide was determined as 38.8 in experiment [1]; 61.2 in experiment [2]; 100 in experiment [3]; 44.5 in experiment [4]; 38.5 in experiment [5]; 115 in experiment [6]. Besides, the normalised SPOT signal, Boehringer light units (BLU); mean over the file's lines of this peptide in experiment [7] was 146.
As for IMDAKFHPFKPQLF [YMR049C 642-655], the normalised SPOT signal, Boehringer light units (BLU); mean over the file's lines of this peptide in experiment [1] amounted to 42.4; in experiment [2] it was 94.3; in experiment [3], 246; in experiment [4] it was 84.6; in experiment [5] it was 213; in experiment [6], 813. Further, in experiment [7], the normalised SPOT signal, Boehringer light units (BLU); mean over the file's lines of this peptide came to 121.
For the molecule INVEREAPMFPVPY [YHR014W 144-157], the normalised SPOT signal, Boehringer light units (BLU); mean over the file's lines of this peptide in experiment [1] was determined as 1.3; in experiment [2], 49.4; in experiment [3], 149; in experiment [4], 19.4; in experiment [5] it was 36.9; in experiment [6], 24.3. The normalised SPOT signal, Boehringer light units (BLU); mean over the file's lines of this peptide in experiment [7] worked out at 75.5.
In the case of IPYEKRDPTSPAPL [YLR129W 367-380], the normalised SPOT signal, Boehringer light units (BLU); mean over the file's lines of this peptide in experiment [1] stood at 7.7; in experiment [2], 29.3; in experiment [3], 114; in experiment [4], 26.9; in experiment [5], 58.4; in experiment [6], 51.8. Besides, the normalised SPOT signal, Boehringer light units (BLU); mean over the file's lines of this peptide in experiment [7] was found to be 43.8.
